Measured values as given in patent publication US20170224836A1 (Novartis, published 2017).
Residue numbers refer to the chain shown, from its start. Like-named read-outs stand apart in the source and are kept apart here.

T1: human CDH6 on cells (human, UniProt P55285 54-790)
T1 sequence: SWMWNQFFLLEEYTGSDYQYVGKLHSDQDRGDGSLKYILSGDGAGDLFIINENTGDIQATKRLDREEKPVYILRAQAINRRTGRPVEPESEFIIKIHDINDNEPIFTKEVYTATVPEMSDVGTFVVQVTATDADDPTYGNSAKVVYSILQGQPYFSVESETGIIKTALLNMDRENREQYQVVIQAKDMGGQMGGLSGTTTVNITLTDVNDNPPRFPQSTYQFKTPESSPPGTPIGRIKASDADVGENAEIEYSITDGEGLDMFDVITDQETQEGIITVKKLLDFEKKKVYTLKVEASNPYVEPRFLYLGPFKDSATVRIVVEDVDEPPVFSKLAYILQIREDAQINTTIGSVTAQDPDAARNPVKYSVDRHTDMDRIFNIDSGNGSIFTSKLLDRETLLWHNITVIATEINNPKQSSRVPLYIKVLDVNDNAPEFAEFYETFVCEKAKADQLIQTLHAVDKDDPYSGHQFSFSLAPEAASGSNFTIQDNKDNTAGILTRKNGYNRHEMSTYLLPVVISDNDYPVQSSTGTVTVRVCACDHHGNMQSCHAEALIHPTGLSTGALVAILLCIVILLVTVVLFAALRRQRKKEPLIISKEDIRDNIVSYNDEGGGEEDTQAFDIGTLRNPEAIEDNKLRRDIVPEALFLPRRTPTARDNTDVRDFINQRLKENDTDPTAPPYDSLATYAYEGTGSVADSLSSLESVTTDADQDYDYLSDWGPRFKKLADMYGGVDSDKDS

T2: hCDH6aa54-615 APPavi (human, UniProt P55285 54-615)
T2 sequence: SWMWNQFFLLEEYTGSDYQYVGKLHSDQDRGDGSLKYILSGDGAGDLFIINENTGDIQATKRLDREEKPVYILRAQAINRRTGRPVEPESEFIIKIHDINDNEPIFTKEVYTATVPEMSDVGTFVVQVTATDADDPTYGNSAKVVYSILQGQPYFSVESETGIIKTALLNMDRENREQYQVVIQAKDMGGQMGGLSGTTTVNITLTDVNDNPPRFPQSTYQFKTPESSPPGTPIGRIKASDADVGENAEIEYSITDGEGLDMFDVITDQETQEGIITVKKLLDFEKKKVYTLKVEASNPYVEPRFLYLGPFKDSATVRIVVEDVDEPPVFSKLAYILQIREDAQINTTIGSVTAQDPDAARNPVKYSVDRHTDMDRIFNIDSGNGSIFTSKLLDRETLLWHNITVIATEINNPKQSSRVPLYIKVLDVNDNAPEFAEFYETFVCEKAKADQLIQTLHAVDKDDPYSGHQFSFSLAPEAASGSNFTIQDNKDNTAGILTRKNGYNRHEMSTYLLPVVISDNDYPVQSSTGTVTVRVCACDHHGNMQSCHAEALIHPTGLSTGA

B1: NOV1127 (antibody, human IgG1, kappa, V domains shown)
VH: QVQLQQSGPGLVKPSQTLSLTCAISGDSVSSQSAAWNWIRQSPSRGLEWLGRIYYRSKWYNDYAVSVKSRITINPDTSKNQFSLQLNSVTPEDTAVYYCARERSYRDYFDYWGQGTLVTVSS
VL: DIQMTQSPSSLSASVGDRVTITCRASQGIFTYLNWYQQKPGKAPKLLIYAASTLQSGVPSRFSGSGSGTDFTLTISSLQPEDFATYYCQQYYSTSLTFGQGTKVEIKR
B2: NOV0719 (antibody, human IgG1, kappa, V domains shown)
VH: QVQLLESGGGLVQPGGSLRLSCAASGFTFSSHWVHWVRQAPGKGLEWVSVISYMGSSTYYADSVKGRFTISRDNSKNTLYLQMNSLRAEDTAVYYCARGSYDMAFDVWGQGTLVTVSS
VL: B1 VL with G28S, F30V, T31S, A50D, T53S, Y91S, Y92G, T94H, L96I
B3: NOV0692 (antibody, human IgG1, lambda, V domains shown)
VH: QVQLVESGGGLVKPGGSLRLSCAASGFTFSRYWMDWVRQAPGKGLEWVGRIKSKANGGITDYAAPVKGRFTISRDDSKNTLYLQMNSLKTEDTAVYYCARGMTFLGIWGQGTLVTVSS
VL: DIELTQPPSVSVSPGQTASITCSGDSIGSKYAQWYQQKPGQAPVLVIYYNSERPSGIPERFSGSNSGNTATLTISGTQAEDEADYYCQSWDGQSTIRVFGGGTKLTVLG
B4: NOV1126 (antibody, human IgG1, lambda, V domains shown)
VH: EVQLLESGGGLVQPGGSLRLSCAASGFTFSDHAIDWVRQAPGKGLEWVSVIAGSGSITYYADSVKGRFTISRDNSKNTLYLQMNSLRAEDTAVYYCARDTGVYREYMDVWGQGTLVTVSS
VL: SYELTQPLSVSVALGQTARITCSGDAIGTKFAHWYQQKPGQAPVLVIYYDHERPSGIPERFSGSNSGNTATLTISRAQAGDEADYYCYSRASSNLVFGGGTKLTVLG
B5: NOV0712-SMCC-DM1 (antibody, human IgG1, kappa, V domains shown)
VH: QVQLLESGGGLVQPGGSLRLSCAASGFTFSSHGMHWVRQAPGKGLEWVSVISGSGSNTGYADSVKGRFTISRDNSKNTLYLQMNSLRAEDTAVYYCARQWGSYAFDSWGQGTLVTVSS
VL: DIQMTQSPSSLSASVGDRVTITCRASQSISSYLNWYQQKPGKAPKLLIYAVSTLQSGVPSRFSGSGSGTDFTLTISSLQPEDFATYYCQQSGTFPPTTFGQGTKVEIKR
modifications: SMCC-DM1 on primary amines, sites not stated
B6: NOV1132 (antibody, human IgG1, lambda, V domains shown)
VH: QVQLQQSGPGLVKPSQTLSLTCAISGDSVSSQSAGWNWIRQSPSRGLEWLGRIYYRSKWYNDYAVSVKSRITINPDTSKNQFSLQLNSVTPEDTAVYYCAREKYTVSFYDFFDYWGQGTLVTVSS
VL: SYELTQPLSVSVALGQTARITCSGDNIGSMTAHWYQQKPGQAPVLVIYDKNERPSGIPERFSGSNSGNTATLTISRAQAGDEADYYCQSWDDSYTSVVFGGGTKLTVLG

What was measured:
human CDH6 on cells [1] = target: T1, human CDH6 on cells; test: FACS on OVCAR3 cells, histogram table
human CDH6 on cells [2] = target: T1, human CDH6 on cells; test: FACS on OVCAR8-CDH6+ cells, histogram table
hCDH6aa54-615 APPavi [3] = target: T2, hCDH6aa54-615 APPavi; test: SPR binning
hCDH6aa54-615 APPavi [4] = target: T2, hCDH6aa54-615 APPavi; test: SPR binning; remark: listed apart in the source
hCDH6aa54-615 APPavi [5] = target: T2, hCDH6aa54-615 APPavi; test: SPR binning; remark: listed apart in the source
hCDH6aa54-615 APPavi [6] = target: T2, hCDH6aa54-615 APPavi; test: SPR binning; remark: listed apart in the source
hCDH6aa54-615 APPavi [7] = target: T2, hCDH6aa54-615 APPavi; test: SPR binning; remark: listed apart in the source
hCDH6aa54-615 APPavi [8] = target: T2, hCDH6aa54-615 APPavi; test: SPR binning; remark: listed apart in the source
hCDH6aa54-615 APPavi [9] = target: T2, hCDH6aa54-615 APPavi; test: SPR binning; remark: listed apart in the source
human CDH6 on cells [10] = target: T1, human CDH6 on cells; test: cell-based or functional assay
human CDH6 on cells [11] = target: T1, human CDH6 on cells; test: cell-based or functional assay; remark: listed apart in the source

| Molecule | Geom. Mean Fluorescence (human CDH6 on cells [1]) | Geom. Mean Fluorescence (human CDH6 on cells [2]) | response of secondary antibody on primary antibody-CDH6 complex (hCDH6aa54-615 APPavi [3]) | response of secondary antibody on primary antibody-CDH6 complex (hCDH6aa54-615 APPavi [4]) | response of secondary antibody on primary antibody-CDH6 complex (hCDH6aa54-615 APPavi [5]) | response of secondary antibody on primary antibody-CDH6 complex (hCDH6aa54-615 APPavi [6]) | response of secondary antibody on primary antibody-CDH6 complex (hCDH6aa54-615 APPavi [7]) | response of secondary antibody on primary antibody-CDH6 complex (hCDH6aa54-615 APPavi [8]) | response of secondary antibody on primary antibody-CDH6 complex (hCDH6aa54-615 APPavi [9]) | Amax (%), inhibition of proliferation, OVCAR3 cells (human CDH6 on cells [10]) | Amax (%), inhibition of proliferation, OVCAR8 (engineered CDH6+) cells (human CDH6 on cells [10]) | IP [nM], inhibition of proliferation, OVCAR3 cells (human CDH6 on cells [10]) | IP [nM], inhibition of proliferation, OVCAR8 (engineered CDH6+) cells (human CDH6 on cells [10]) | percent inhibition at 1.22 nM ADC, JHOS4 cells (human CDH6 on cells [11]) | percent inhibition at 1.22 nM ADC, KNS42 cells (human CDH6 on cells [11]) | percent inhibition at 1.22 nM ADC, NCIH661 cells (human CDH6 on cells [11]) | percent inhibition at 1.22 nM ADC, OVCAR3 cells (human CDH6 on cells [11]) | percent inhibition at 1.22 nM ADC, SNU8 cells (human CDH6 on cells [11]) |
| --- | --- | --- | --- | --- | --- | --- | --- | --- | --- | --- | --- | --- | --- | --- | --- | --- | --- | --- |
| control IgG-sulfo-SPDB-DM4 (antibody) | 60.4 | 56.5 | – | – | – | – | – | – | – | – | – | – | – | – | – | – | – | – |
| B1 | – | – | 51.5 | 25.4 | 16.5 | 30.9 | 22.4 | 36.7 | 17.8 | – | – | – | – | – | – | – | – | – |
| B2 | – | – | -2.36 | 13.5 | 25.4 | 16.1 | 11.1 | 46.9 | 20.7 | – | – | – | – | – | – | – | – | – |
| B3 | – | – | 35.5 | -2.84 | 7.83 | 17.9 | 14.1 | – | 23.2 | – | – | – | – | – | – | – | – | – |
| B4 | – | – | 61.6 | 18.7 | 8.59 | 36.9 | 26.7 | 56.6 | 30.1 | – | – | – | – | – | – | – | – | – |
| B5 | – | – | – | – | – | – | – | – | – | 88% | 95% | 0.065 nM | 0.015 nM | 67.6% | 56.8% | 32.5% | 87.6% | 31.4% |
| B6 | – | – | 33.6 | 17.9 | 23.7 | 17.8 | 14.3 | 39.3 | 1.08 | – | – | – | – | – | – | – | – | – |
